Target: the molecule itself
Experiment: crystal structure; PIV5 HN ectodomain 56-565 at ~10 mg/mL with a 1.2 molar excess of sialyllactose; 1.6 M ammonium sulfate, 0.1 M MES pH 6.5, 10% 1,4-dioxane, room temperature; space group I4, 2.5 Å

B1: PIV5 HN ectodomain (56-565) (domain or fragment)
chain: SGLGSITDLLNNILSVANQIIYNSAVALPLQLDTLESTLLTAIKSLQTSDKLEQNCSWSAALINDNRYINGINQFYFSIAEGRNLTLGPLLNMPSFIPTATTPEGCTRIPSFSLTKTHWCYTHNVILNGCQDHVSSNQFVSMGIIEPTSAGFPFFRTLKTLYLSDGVNRKSCSISTVPGGCMMYCFVSTQPERDDYFSAAPPEQRIIIMYYNDTIVERIINPPGVLDVWATLNPGTGSGVYYLGWVLFPIYGGVIKGTSLWNNQANKYFIPQMVAALCSQNQATQVQNAKSSYYSSWFGNRMIQSGILACPLRQDLTNECLVLPFSNDQVLMGAEGRLYMYGDSVYYYQRSNSWWPMTMLYKVTITFTNGQPSAISAQNVPTQQVPRPGTGDCSATNRCPGFCLTGVYADAWLLTNPSSTSTFGSEATFTGSYLNTATQRINPTMYIANNTQIISSQQFGSSGQEAAYGHTTCFRDTGSVMVYCIYIIELSSSLLGQFQIVPFIRQVTLS
notes: Hemagglutinin-neuraminidase (HN) of parainfluenza virus 5, ectodomain residues 56-565 (stalk 56-101, linker 102-117, head from I118); also called parainfluenza virus 5 hemagglutinin-neuraminidase ectodomain
stoichiometry N: 4

— paper PMC3738495, “Structure of the Parainfluenza Virus 5 (PIV5) Hemagglutinin-Neuraminidase (HN) Ectodomain” (PLoS Pathogens, 2013)
